Results taken from paper PMC3418399.

Key:
[1] = biological target: Candida albicans ATP-binding cassette transporter CaCdr1p (Candida albicans) (UniProt Q5ANA3)
[2] = biological target: Candida albicans ATP-binding cassette transporter CaCdr1p (Candida albicans) (UniProt Q5ANA3); remark: listed apart in the source

Sequence of Candida albicans ATP-binding cassette transporter CaCdr1p (Candida albicans) (Q5ANA3 whole entry): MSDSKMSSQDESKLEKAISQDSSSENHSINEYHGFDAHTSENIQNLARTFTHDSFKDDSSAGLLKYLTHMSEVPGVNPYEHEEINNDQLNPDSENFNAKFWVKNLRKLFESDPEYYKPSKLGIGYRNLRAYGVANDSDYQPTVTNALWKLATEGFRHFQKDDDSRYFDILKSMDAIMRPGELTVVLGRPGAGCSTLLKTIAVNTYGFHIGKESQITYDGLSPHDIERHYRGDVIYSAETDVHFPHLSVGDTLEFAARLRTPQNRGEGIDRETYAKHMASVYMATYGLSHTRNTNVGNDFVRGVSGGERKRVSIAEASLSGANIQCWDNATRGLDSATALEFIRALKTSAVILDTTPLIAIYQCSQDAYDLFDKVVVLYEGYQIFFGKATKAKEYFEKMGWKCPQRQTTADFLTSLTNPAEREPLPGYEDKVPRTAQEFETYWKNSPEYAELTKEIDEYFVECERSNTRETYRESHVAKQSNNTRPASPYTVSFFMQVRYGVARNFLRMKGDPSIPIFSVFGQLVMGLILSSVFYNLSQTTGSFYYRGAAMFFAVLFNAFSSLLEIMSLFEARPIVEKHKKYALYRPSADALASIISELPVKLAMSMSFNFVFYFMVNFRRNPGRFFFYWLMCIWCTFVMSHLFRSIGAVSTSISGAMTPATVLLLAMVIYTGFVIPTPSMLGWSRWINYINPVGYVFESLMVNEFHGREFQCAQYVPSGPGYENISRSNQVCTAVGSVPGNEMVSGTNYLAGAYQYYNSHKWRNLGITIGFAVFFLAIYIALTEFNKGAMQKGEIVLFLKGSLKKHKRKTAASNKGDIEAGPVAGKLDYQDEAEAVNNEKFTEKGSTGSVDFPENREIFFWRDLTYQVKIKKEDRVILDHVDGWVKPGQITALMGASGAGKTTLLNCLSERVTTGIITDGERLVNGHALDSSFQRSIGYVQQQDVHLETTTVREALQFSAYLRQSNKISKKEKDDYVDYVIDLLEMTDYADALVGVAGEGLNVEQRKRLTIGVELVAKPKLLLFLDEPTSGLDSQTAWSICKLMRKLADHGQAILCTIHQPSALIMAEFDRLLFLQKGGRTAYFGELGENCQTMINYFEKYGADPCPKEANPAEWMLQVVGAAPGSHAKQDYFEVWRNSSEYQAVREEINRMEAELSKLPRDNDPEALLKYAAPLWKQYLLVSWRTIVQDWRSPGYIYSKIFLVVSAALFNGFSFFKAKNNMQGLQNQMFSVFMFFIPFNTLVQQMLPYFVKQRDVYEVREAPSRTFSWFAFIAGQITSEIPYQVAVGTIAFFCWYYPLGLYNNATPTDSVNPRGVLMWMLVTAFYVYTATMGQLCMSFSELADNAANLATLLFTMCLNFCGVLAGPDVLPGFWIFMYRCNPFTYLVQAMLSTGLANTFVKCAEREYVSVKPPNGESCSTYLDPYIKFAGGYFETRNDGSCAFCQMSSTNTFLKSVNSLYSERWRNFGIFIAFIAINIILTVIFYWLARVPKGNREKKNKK

Substance	IC50 of inhibition of the ATPase activity of CaCdr1p [1] [µM]	IC50 of inhibition of the CaCdr1p ATPase activity, plasma membrane preparations [2] [µM]
RC1, naked D-octapeptide D-NH2-FFKWQRRR-CONH2	> 200	
RC21v3, D-NH2-FFKWQR(Mtr)RR-CONH2 (peptide)		1.1
